The values that follow come from CN114456267A.

This test addresses T1, 重组人CD73蛋白 (human) (UniProt P21589).
T1 sequence (looked up): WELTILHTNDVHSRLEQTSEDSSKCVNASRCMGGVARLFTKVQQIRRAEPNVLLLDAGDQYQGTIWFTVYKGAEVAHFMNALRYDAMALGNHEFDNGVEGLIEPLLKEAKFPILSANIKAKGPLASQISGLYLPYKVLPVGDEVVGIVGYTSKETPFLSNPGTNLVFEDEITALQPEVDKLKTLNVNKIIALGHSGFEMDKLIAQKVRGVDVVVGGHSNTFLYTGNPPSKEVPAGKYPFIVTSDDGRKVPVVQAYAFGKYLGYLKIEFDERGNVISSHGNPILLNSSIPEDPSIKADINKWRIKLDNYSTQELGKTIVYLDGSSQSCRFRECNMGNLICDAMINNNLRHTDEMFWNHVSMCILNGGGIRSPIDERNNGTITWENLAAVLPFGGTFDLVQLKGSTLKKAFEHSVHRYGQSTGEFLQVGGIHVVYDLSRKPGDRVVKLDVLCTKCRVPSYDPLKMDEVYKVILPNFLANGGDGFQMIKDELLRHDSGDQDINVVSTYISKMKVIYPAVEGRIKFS
Put plainly: ELISA, plate coated with 1 μg/mL recombinant human CD73, anti-human IgG-HRP detection. A general note: In an ELISA, binding on a coated surface is turned into a signal by an enzyme label.

B1: 抗CD73人源化单克隆抗体5A4 (antibody, part only; not given: Light chain variable region, part only)
VH: SICFEGKPDMNQRDKEDHMRVFMNSWDDWYDVKLWHCIDFERAHRPQHYPIMAQVQLVQSGAEVKKPGASVKVSCKASGYSFTDYNMYWVRQAPGQGLEWMGYIDPYNGDASYAQKFQGRVTMTRDTSTSTVYMELSSLRSEDTAVYYCAKTDYWGQGTTLTVSSCLAKLPCGSHTWVWWQEMIQNAPWCVQPTHDHWAPAGWNHGCCILAHAENIQGAQWFAY
B1: the 亲和力 (affinity) was determined as 8.3e-13 mol/L.
